# Source: patent US20200392225A1 (Novartis, published 2020)
# Residue numbers refer to the chain shown, from its start.
# T1: human NPR1 expressed on CHO-K1 cells (human, UniProt P16066 33-1061)
# T1 sequence: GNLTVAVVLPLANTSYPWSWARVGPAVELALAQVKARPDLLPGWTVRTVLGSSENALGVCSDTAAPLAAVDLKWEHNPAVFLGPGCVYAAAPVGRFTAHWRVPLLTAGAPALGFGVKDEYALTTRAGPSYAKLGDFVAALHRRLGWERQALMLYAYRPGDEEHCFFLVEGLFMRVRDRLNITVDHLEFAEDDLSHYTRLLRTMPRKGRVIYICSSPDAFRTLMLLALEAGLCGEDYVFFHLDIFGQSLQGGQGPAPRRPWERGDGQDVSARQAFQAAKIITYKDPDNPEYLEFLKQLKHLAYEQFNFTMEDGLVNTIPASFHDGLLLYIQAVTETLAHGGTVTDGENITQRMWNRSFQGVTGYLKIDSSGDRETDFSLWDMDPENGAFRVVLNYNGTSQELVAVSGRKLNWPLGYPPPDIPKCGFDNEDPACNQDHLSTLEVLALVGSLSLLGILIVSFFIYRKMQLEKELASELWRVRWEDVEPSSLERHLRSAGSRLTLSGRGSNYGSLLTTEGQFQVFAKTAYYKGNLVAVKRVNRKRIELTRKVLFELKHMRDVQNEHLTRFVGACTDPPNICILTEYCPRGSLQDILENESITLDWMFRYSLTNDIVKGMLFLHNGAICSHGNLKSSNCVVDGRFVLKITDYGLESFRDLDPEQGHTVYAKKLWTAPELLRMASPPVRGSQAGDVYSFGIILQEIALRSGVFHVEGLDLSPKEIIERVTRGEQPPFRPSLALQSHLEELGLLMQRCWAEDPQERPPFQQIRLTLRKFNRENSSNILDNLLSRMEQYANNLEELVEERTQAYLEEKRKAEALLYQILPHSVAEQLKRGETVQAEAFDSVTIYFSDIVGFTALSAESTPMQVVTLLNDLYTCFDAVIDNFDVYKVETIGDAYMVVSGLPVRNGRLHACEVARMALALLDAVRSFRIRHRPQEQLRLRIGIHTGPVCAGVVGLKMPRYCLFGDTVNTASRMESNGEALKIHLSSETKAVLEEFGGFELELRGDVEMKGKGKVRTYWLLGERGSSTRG
# B1: WW06 FabCys (Fab, V domains shown)
# VH: QVQLVQSGAEVKKPGESLKISCKGSGYSFTSYWIAWVRQMPGKGLEWMGRIDPDNSYTRYSPSFQGQVTISADKSISTAYLQWSSLKASDTAMYYCARWLSPGYALGEQPAGMDHWGQGTLVTVSS
# VL: DIVLTQPPSVSGAPGQRVTISCTGSSSNIGAGYAVHWYQQLPGTAPKLLIYSNNKRPSGVPDRFSGSKSGTSASLAITGLQAEDEADYYCQSYDLQKSSRVFGGGTKLTVL
# B2: WW03 FabCys (Fab, V domains shown)
# VH: QVQLLESGGGLVQPGGSLRLSCAASGFTFSSYWMNWVRQAPGKGLEWVSAISSDGSYTYYADSVKGRFTISRDNSKNTLYLQMNSLRAEDTAVYYCARDRYSMIYSYGAGAFDYWGQGTLVTVSS
# VL: DIQMTQSPSSLSASVGDRVTITCRASQGISSYLAWYQQKPGKAPKLLIYTASTLQSGVPSRFSGSGSGTDFTLTISSLQPEDFATYYCMQSYEKPRTFGQGTKVEIK
# B3: WW01 FabCys (Fab, V domains shown)
# VH: QVQLLESGGGLVQPGGSLRLSCAASGFTFNTHYIHWVRQAPGKGLEWVSSISGSGSNTYYADSVKGRFTISRDNSKNTLYLQMNSLRAEDTAVYYCARERGYVYYHMFDPWGQGTLVTVSS
# VL: DIVLTQSPATLSLSPGERATLSCRASQSITRNYLAWYQQKPGQAPRLLIYGASSRATGIPARFSGSGSGTDFTLTISSLEPEDFAVYYCQQHSMYPRTFGQGTKVEIK
# B4: YY06 FabCys (Fab, V domains shown)
# VH: EVQLLESGGGLVQPGGSLRLSCAASGFTFSSYAISWVRQAPGKGLEWVSAISGSGGSTYYAESVKGRFTISRDNSKNTLYLQMNSLRAEDTAVYYCARPYLGDRRSYGFDHWGQGTLVTVSS
# VL: QSALTQPASVSGSPGQSITISCTGTSSDVGSYNLVSWYQQHPGKAPKLMIYEGSKRPSGVSNRFSGSKSGNTASLTISGLQAEDEADYYCSSYGFHIVVVVFGGGTKLTVL
# B5: YY07 FabCys (Fab, V domains shown)
# VH: EVQLVQSGAEVKKPGESLKISCKGSGYSFTSYWISWVRQMPGKGLEWMGIIYPGTSYTRYSPSFQGQVTISADKSISTAYLQWSSLKASDTAMYYCARGSLPGLLGFDHWGQGTLVTVSS
# VL: QSVLTQPPSVSGAPGQRVTISCTGSSSNIGAGYDVHWYQQLPGTAPKLLIYGNSNRPNGVPDRFSGSKSGTSASLAITGLQAEDEADYYCQSYDSPTSSSVFGGGTKLTVL
# B6: YY05 FabCys (Fab, V domains shown)
# VH: B5 VH with S100A, L101V, P102A, L104Q
# VL: B5 VL with N58S, D94Y, S95T, P96S, T97S, S98H, S99G, S100P
# B7: YY01 FabCys (Fab, V domains shown)
# VH: EVQLVESGGGLVQPGGSLRLSCAASGFTFSSYWISWVRQAPGKGLEWVANIKQSGSETYYVESVKGRFTISRDNAKNSLYLQMNSLRAEDTAVYYCARSLRRRSTEHAGFDVWGQGTLVTVSS
# VL: B2 VL with S31N, A43V, T50A, F83V, M89Q, S91A, Y92D, E93K, K94F, R96Y
# B8: YY04 FabCys (Fab, V domains shown)
# VH: EVQLVESGGGLVKPGGSLRLSCAASGFTFSNYWISWVRQAPGKGLEWVGRIKSKTYGGTTDYAEPVKGRFTISRDDSKNTLYLQMNSLKTEDTAVYYCAREKYSIRARGHGDYGFDVWGQGTLVTVSS
# VL: B2 VL with S31N, A43V, T50A, F83V, M89Q, S91G, E93H, K94A, R96F
# Target: T1, human NPR1 expressed on CHO-K1 cells
# Assay: cell-based or functional assay
Binder,"cGMP conc [nM] at 2 uM FabCys, +0.075 nM ANP","cGMP conc [nM] at 2 uM FabCys, without ANP"
B1,251 nM,281 nM
B2,108 nM,32 nM
B3,121 nM,30 nM

# Target: T1, human NPR1 expressed on CHO-K1 cells
# Assay: cell-based or functional assay
# Remark: another data set of the same source
Binder,"cGMP conc [nM] at 1 uM FabCys, +0.075 nM ANP","cGMP conc [nM] at 1 uM FabCys, without ANP"
B4,75 nM,20 nM
B5,88 nM,77 nM
B6,227 nM,207 nM
B7,46 nM,15 nM
B8,67 nM,18 nM
